Earlier results in US20200069786A1, “COMPOSITION AND PROCESS FOR PREPARING VACCINE” (TREOS BIO ZRT., priority 2018, published 2020).
Read-outs that look alike come from different tables or passages of the source.

Test system: TSA
[1] = TSA expression rate in BLADDER cancer
[2] = TSA expression rate in GASTRIC cancer
[3] = TSA expression rate in LUNG cancer
[4] = TSA expression rate in Cervical cancer
[5] = TSA expression rate in MELANOMA

B1: TSPY1 (protein, UniProt Q01534 1-308, looked up)
Testis-specific Y-encoded …: MRPEGSLTYRVPERLRQGFCGVGRAAQALVCASAKEGTAFRMEAVQEGAAGVESEQAALGEEAVLLLDDIMAEVEVVAEEEGLVERREEAQRAQQAVPGPGPMTPESAPEELLAVQVELEPVNAQARKAFSRQREKMERRRKPHLDRRGAVIQSVPGFWANVIANHPQMSALITDEDEDMLSYMVSLEVGEEKHPVHLCKIMLFFRSNPYFQNKVITKEYLVNITEYRASHSTPIEWYPDYEVEAYRRRHHNSSLNFFNWFSDHNFAGSNKIAEILCKDLWRNPLQYYKRMKPPEEGTETSGDSQLLS
TSA Expression Rate (ER) (HCC): 35% | Expression Rate (ER) % [1]: 0% | Expression Rate (ER) % [2]: 0% | Expression Rate (ER) % (TSA expression rate in Kidney): 5% | Expression Rate (ER) % (TSA expression rate in LEUKEMIAS): 12% | Expression Rate (ER) % [3]: 0% | Expression Rate (ER) % (TSA expression rate in LYMPHOMAS): 0%

B2: FBXO39 (protein, UniProt Q8N4B4 1-442, looked up)
F-box only protein 39: MDEESELIQPQDQSCWAFLPDLCLCRVFWWLGDRDRSRAALVCRKWNQMMYSAELWRYRTITFSGRPSRVHASEVESAVWYVKKFGRYLEHLEVKFMNPYNAVLTKKFQVTMRGLLSCLSKSNNRLKSLSIQYLELDRLVWRNSIRSSFISSLSFFLKKMGKRLDYLNLKGARLTVEQGCQILDSLSYMRNENVISELNIEDYFSHHLAVYNSPQFKKTMSTFHNLVSLNLNYNCISDELLENLCENASTLRTINIKCHVHDPHGQVIWGMSWAKLARQATNLKVNFFFERIMKYERLARILLQEIPIRSISLRSCYFSDPDCSMRPTLIDLLPTFRHTLQKLTCEFNNNHESLDEELHLLIISCRKLFYFKIWAFLDVSFVERILKSQKERQCALRVFKARIYTNRYETNEEDKTLQEIYRKYRKLIESELSYFVIVYSVM
TSA Expression Rate (ER) (BREAST): 38% | Expression Rate (ER) % (TSA expression rate in CRC): 39% | Expression Rate (ER) % [2]: 4% | Expression Rate (ER) % [3]: 0%

B3: FSIP1 (protein, UniProt Q8NA03 1-581, looked up)
Fibrous sheath-interacting …: MDIIKGNLDGISKPASNSRIRPGSRSSNASLEVLSTEPGSFKVDTASNLNSGKEDHSESSNTENRRTSNDDKQESCSEKIKLAEEGSDEDLDLVQHQIISECSDEPKLKELDSQLQDAIQKMKKLDKILAKKQRREKEIKKQGLEMRIKLWEEIKSAKYSEAWQSKEEMENTKKFLSLTAVSEETVGPSHEEEDTFSSVFHTQIPPEEYEMQMQKLNKDFTCDVERNESLIKSGKKPFSNTEKIELRGKHNQDFIKRNIELAKESRNPVVMVDREKKRLVELLKDLDEKDSGLSSSEGDQSGWVVPVKGYELAVTQHQQLAEIDIKLQELSAASPTISSFSPRLENRNNQKPDRDGERNMEVTPGEKILRNTKEQRDLHNRLREIDEKLKMMKENVLESTSCLSEEQLKCLLDECILKQKSIIKLSSERKKEDIEDVTPVFPQLSRSIISKLLNESETKVQKTEVEDADMLESEECEASKGYYLTKALTGHNMSEALVTEAENMKCLQFSKDVIISDTKDYFMSKTLGIGRLKRPSFLDDPLYGISVSLSSEDQHLKLSSPENTIADEQETKDAAEECKEP
TSA Expression Rate (ER) (BREAST): 42%

B4: CEP55 (protein, UniProt Q53EZ4 1-464, looked up)
Centrosomal protein of 55 kDa: MSSRSTKDLIKSKWGSKPSNSKSETTLEKLKGEIAHLKTSVDEITSGKGKLTDKERHRLLEKIRVLEAEKEKNAYQLTEKDKEIQRLRDQLKARYSTTTLLEQLEETTREGERREQVLKALSEEKDVLKQQLSAATSRIAELESKTNTLRLSQTVAPNCFNSSINNIHEMEIQLKDALEKNQQWLVYDQQREVYVKGLLAKIFELEKKTETAAHSLPQQTKKPESEGYLQEEKQKCYNDLLASAKKDLEVERQTITQLSFELSEFRRKYEETQKEVHNLNQLLYSQRRADVQHLEDDRHKTEKIQKLREENDIARGKLEEEKKRSEELLSQVQFLYTSLLKQQEEQTRVALLEQQMQACTLDFENEKLDRQHVQHQLHVILKELRKARNQITQLESLKQLHEFAITEPLVTFQGETENREKVAASPKSPTAALNESLVECPKCNIQYPATEHRDLLVHVEYCSK
TSA Expression Rate (ER) (LUNG): 94%

B5: CT46 (protein, UniProt Q86X24 1-394, looked up)
HORMA domain-containing …: MATAQLQRTPMSALVFPNKISTEHQSLVLVKRLLAVSVSCITYLRGIFPECAYGTRYLDDLCVKILREDKNCPGSTQLVKWMLGCYDALQKKYLRMVVLAVYTNPEDPQTISECYQFKFKYTNNGPLMDFISKNQSNESSMLSTDTKKASILLIRKIYILMQNLGPLPNDVCLTMKLFYYDEVTPPDYQPPGFKDGDCEGVIFEGEPMYLNVGEVSTPFHIFKVKVTTERERMENIDSTILSPKQIKTPFQKILRDKDVEDEQEHYTSDDLDIETKMEEQEKNPASSELEEPSLVCEEDEIMRSKESPDLSISHSQVEQLVNKTSELDMSESKTRSGKVFQNKMANGNQPVKSSKENRKRSQHESGRIVLHHFDSSSQESVPKRRKFSEPKEHI
TSA Expression Rate (ER) (BREAST): 29% | TSA Expression Rate (ER) (LUNG): 47% | Expression Rate (ER) % [1]: 20% | Expression Rate (ER) % (TSA expression rate in CRC): 7% | Expression Rate (ER) % (TSA expression rate in Esophageal): 35%

B6: GASZ (protein, UniProt Q8WWH4 1-475, looked up)
Ankyrin repeat, SAM and basic …: MAASALRGLPVAGGGESSESEDDGWEIGYLDRTSQKLKRLLPIEEKKEKFKKAMTIGDVSLVQELLDSGISVDSNFQYGWTPLMYAASVANAELVRVLLDRGANASFEKDKQSILITACSAHGSEEQILKCVELLLSRNADPNVACRRLMTPIMYAARDGHTQVVALLVAHGAEVNTQDENGYTALTWAARQGHKNIVLKLLELGANKMLQTKDGKMPSEIAKRNKHHEIFNLLSFTLNPLEGKLQQLTKEDTICKILTTDSDREKDHIFSSYTAFGDLEVFLHGLGLEHMTDLLKERDITLRHLLTMREDEFTKNGITSKDQQKILAALKELQVEEIQFGELSEETKLEISGDEFLNFLLKLNKQCGHLITAVQNVITELPVNSQKITLEWASPQNFTSVCEELVNNVEDLSEKVCKLKDLIQKLQNERENDPTHIQLREEVSTWNSRILKRTAITICGFGFLLFICKLTFQRK
TSA Expression Rate (ER) (LUNG): 29% | TSA Expression Rate (ER) (THYROID): 13% | Expression Rate (ER) % (TSA expression rate in CRC): 22% | Expression Rate (ER) % [4]: 50% | Expression Rate (ER) % [2]: 0% | Expression Rate (ER) % [5]: 17%

B7: NY-BR-1 (protein, UniProt Q9BXX3 1-1397, looked up)
Ankyrin repeat …: MEEISAAAVKVVPGPERPSPFSQLVYTSNDSYIVHSGDLRKIHKAASRGQVRKLEKMTKRKKTINLNIQDAQKRTALHWACVNGHEEVVTFLVDRKCQLDVLDGEHRTPLMKALQCHQEACANILIDSGADINLVDVYGNTALHYAVYSEILSVVAKLLSHGAVIEVHNKASLTPLLLSITKRSEQIVEFLLIKNANANAVNKYKCTALMLAVCHGSSEIVGMLLQQNVDVFAADICGVTAEHYAVTCGFHHIHEQIMEYIRKLSKNHQNTNPEGTSAGTPDEAAPLAERTPDTAESLVEKTPDEAAPLVERTPDTAESLVEKTPDEAASLVEGTSDKIQCLEKATSGKFEQSAEETPREITSPAKETSEKFTWPAKGRPRKIAWEKKEDTPREIMSPAKETSEKFTWAAKGRPRKIAWEKKETPVKTGCVARVTSNKTKVLEKGRSKMIACPTKESSTKASANDQRFPSESKQEEDEEYSCDSRSLFESSAKIQVCIPESIYQKVMEINREVEEPPKKPSAFKPAIEMQNSVPNKAFELKNEQTLRADPMFPPESKQKDYEENSWDSESLCETVSQKDVCLPKATHQKEIDKINGKLEESPNKDGLLKATCGMKVSIPTKALELKDMQTFKAEPPGKPSAFEPATEMQKSVPNKALELKNEQTLRADEILPSESKQKDYEENSWDTESLCETVSQKDVCLPKAAHQKEIDKINGKLEGSPVKDGLLKANCGMKVSIPTKALELMDMQTFKAEPPEKPSAFEPAIEMQKSVPNKALELKNEQTLRADEILPSESKQKDYEESSWDSESLCETVSQKDVCLPKATHQKEIDKINGKLEESPDNDGFLKAPCRMKVSIPTKALELMDMQTFKAEPPEKPSAFEPAIEMQKSVPNKALELKNEQTLRADQMFPSESKQKKVEENSWDSESLRETVSQKDVCVPKATHQKEMDKISGKLEDSTSLSKILDTVHSCERARELQKDHCEQRTGKMEQMKKKFCVLKKKLSEAKEIKSQLENQKVKWEQELCSVRLTLNQEEEKRRNADILNEKIREELGRIEEQHRKELEVKQQLEQALRIQDIELKSVESNLNQVSHTHENENYLLHENCMLKKEIAMLKLEIATLKHQYQEKENKYFEDIKILKEKNAELQMTLKLKEESLTKRASQYSGQLKVLIAENTMLTSKLKEKQDKEILEAEIESHHPRLASAVQDHDQIVTSRKSQEPAFHIAGDACLQRKMNVDVSSTIYNNEVLHQPLSEAQRKSKSLKINLNYAGDALRENTLVSEHAQRDQRETQCQMKEAEHMYQNEQDNVNKHTEQQESLDQKLFQLQSKNMWLQQQLVHAHKKADNKSKITIDIHFLERKMQHHLLKEKNEEIFNYNNHLKNRIYQYEKEKAETENS
TSA Expression Rate (ER) (BREAST): 47% | Expression Rate (ER) % (TSA expression rate in HEAD and NECK): 2%

B8: DKKL1 (protein, UniProt Q9UK85 31-242, looked up)
Dickkopf-like protein 1: APIHDADAQESSLGLTGLQSLLQGFSRLFLKGNLLRGIDSLFSAPMDFRGLPGNYHKEENQEHQLGNNTLSSHLQIDKMTDNKTGEVLISENVVASIQPAEGSFEGDLKVPRMEEKEALVPIQKATDSFHTELHPRVAFWIIKLPRRRSHQDALEGGHWLSEKRHRLQAIRDGLRKGTHKDVLEEGTESSSHSRLSPRKTHLLYILRPSRQL
TSA Expression Rate (ER) (BREAST): 20% | TSA Expression Rate (ER) (OVARIAN): 57% | TSA Expression Rate (ER) (THYROID): 0% | Expression Rate (ER) % (TSA expression rate in CRC): 0% | Expression Rate (ER) % [4]: 33% | Expression Rate (ER) % (TSA expression rate in Kidney): 0% | Expression Rate (ER) % [3]: 12% | Expression Rate (ER) % [5]: 25% | Expression Rate (ER) % (TSA expression rate in PROSTATE cancer): 13%

B9: ZNF645 (protein, UniProt Q8N7E2 1-425, looked up)
E3 ubiquitin-protein ligase …: MNKMPAGEQECEYNKEGKYYSKGVKLVRKKKKIPGYRWGDIKINIIGEKDDLPIHFCDKCDLPIKIYGRIIPCKHAFCYHCANLYDKVGYKVCPRCRYPVLRIEAHKRGSVFMCSIVQQCKRTYLSQKSLQAHIKRRHKRARKQVTSASLEKVRPHIAPPQTEISDIPKRLQDRDHLSYIPPEQHTMVSLPSVQHMLQEQHNQPHKDIQAPPPELSLSLPFPIQWETVSIFTRKHGNLTVDHIQNNSDSGAKKPTPPDYYPECQSQPAVSSPHHIIPQKQHYAPPPSPSSPVNHQMPYPPQDVVTPNSVRSQVPALTTTYDPSSGYIIVKVPPDMNSPPLRAPQSQNGNPSASEFASHHYNLNILPQFTENQETLSPQFTQTDAMDHRRWPAWKRLSPCPPTRSPPPSTLHGRSHHSHQRRHRRY
TSA Expression Rate (ER) (LUNG): 68%
